# Experimental data published in paper PMC2680336.
# Target: Ect2 (UniProt Q9H8V3)
# Assay: anti-myc IP, anti-FLAG blot
# Conditions: reference: wild-type FLAG-HsCYK-4; sites S157
substance,measurement,value
HsCYK-4 (MgcRacGAP) (from UniProt Q9H0H5) S157A,binding against the reference,weaker
